These results are taken from paper PMC4364632, “Engineering a fungal peroxidase that degrades lignin at very acidic pH” (Biotechnology for Biofuels, 2014).

Series [1] concerns T1, VP1.
T1 construct: mature protein, signal peptide removed, untagged in pET23a
In words: veratraldehyde formation at […] nm, steady-state kinetics. In kind it is biochemical, Pleurotus ostreatus. To be noted: 0.1 mM H2O2, 0.1 M tartrate pH 3.0, 25°C.

The test system of series [2] is T1, VP1. In words: RB5 disappearance at […] nm, steady-state kinetics. In kind it is biochemical, Pleurotus ostreatus. Conditions: 0.1 mM H2O2, 0.1 M tartrate pH 3.5, 25°C.
In series [3] the test system is T1, VP1. In words: ABTS cation radical formation at […] nm, steady-state kinetics. In kind it is biochemical, Pleurotus ostreatus. Conditions: 0.1 mM H2O2, 0.1 M tartrate pH 3.5, 25°C; biphasic, high-efficiency site (catalytic Trp).
The test system of series [4] is T1, VP1. In words: dimeric coerulignone formation at […] nm, steady-state kinetics. Conditions: 0.1 mM H2O2, 0.1 M tartrate pH 3.5, 25°C; biphasic, high-efficiency site (catalytic Trp). In kind it is biochemical, Pleurotus ostreatus.
Substrate in series [5]: CCn1c(=NN=c2sc3cc(S(=O)(=O)O)ccc3n2CC)sc2cc(S(=O)(=O)O)ccc21
Nature of the series: purified protein. To be noted: 0.1 mM H2O2, 0.1 M tartrate pH 3.5, 25°C. In kind it is biochemical, Phanerodontia chrysosporium.

Substrate in series [6]: COc1ccc(CO)cc1OC
In words: purified protein. In kind it is biochemical, Phanerodontia chrysosporium. To be noted: 0.1 mM H2O2, 0.1 M tartrate pH 3.0, 25°C.

Substrate in series [7]: COc1cccc(OC)c1O
In words: purified protein. In kind it is biochemical, Phanerodontia chrysosporium. To be noted: 0.1 mM H2O2, 0.1 M tartrate pH 3.5, 25°C.

Substrate in series [8]: CCn1c(=NN=c2sc3cc(S(=O)(=O)O)ccc3n2CC)sc2cc(S(=O)(=O)O)ccc21
Nature of the series: purified protein. In kind it is biochemical, Gelatoporia subvermispora. Conditions: 0.1 mM H2O2, 0.1 M tartrate pH 3.5, 25°C.

Substrate in series [9]: COc1ccc(CO)cc1OC
In words: purified protein. In kind it is biochemical, Gelatoporia subvermispora. Conditions: 0.1 mM H2O2, 0.1 M tartrate pH 3.0, 25°C.

Substrate in series [10]: COc1ccccc1OC(CO)C(O)c1cc(OC)c(OC)c(OC)c1
Nature of the series: purified protein. To be noted: 0.1 mM H2O2, 100 mM BR buffer pH 3.0, 25°C, unit doubtful: printed kcat/Km (s^-1.mM^-1) implies mM. In kind it is biochemical, Gelatoporia subvermispora.

Substrate in series [11]: Nc1c(N=Nc2ccc(S(=O)(=O)CCOS(=O)(=O)O)cc2)c(S(=O)(=O)O)cc2cc(S(=O)(=O)O)c(N=Nc3ccc(S(=O)(=O)CCOS(=O)(=O)O)cc3)c(O)c12
Nature of the series: purified protein. In kind it is biochemical, Gelatoporia subvermispora. To be noted: 0.1 mM H2O2, 0.1 M tartrate pH 3.5, 25°C.

As a reminder, the Km is the substrate concentration at which the rate is half of its maximum. Take `COc1ccc(CO)cc1OC` [veratryl alcohol]: in the series with VP1 [1], the Km amounted to 5.5 ± 0.046 mM.

Turning to `Nc1c(N=Nc2ccc(S(=O)(=O)CCOS(=O)(=O)O)cc2)c(S(=O)(=O)O)cc2cc(S(=O)(=O)O)c(N=Nc3ccc(S(=O)(=O)CCOS(=O)(=O)O)cc3)c(O)c12` [Reactive Black 5], the Km in the series with VP1 [2] came out at 5.4 ± 0.2 µM.

For the molecule `CCn1c(=NN=c2sc3cc(S(=O)(=O)O)ccc3n2CC)sc2cc(S(=O)(=O)O)ccc21` [2,2'-azino-bis(3-ethylbenzothiazoline-6-sulfonate)], the Km with VP1 [3] is 4 ± 0.4 µM.

In the case of `COc1cccc(OC)c1O` [2,6-dimethoxyphenol], the Michaelis-Menten constant (Km) in the series on VP1 [4] is 54 ± 4 µM.

B1: LiP-H8 (Phanerodontia chrysosporium) (protein)
chain: ATCSNGKTVGDASCCAWFDVLDDIQQNLFHGGQCGAEAHESIRLVFHDSIAISPAMEAQGKFGGGGADGSIMIFDDIETAFHPNIGLDEIVKLQKPFVQKHGVTPGDFIAFAGRVALSNCPGAPQMNFFTGRAPATQPAPDGLVPEPFHTVDQIINRVNDAGEFDELELVWMLSAHSVAAVNDVDPTVQGLPFDSTPGIFDSQFFVETQLRGTAFPGSGGNQGEVESPLPGEIRIQSDHTIARDSRTACEWQSFVNNQSKLVDDFQFIFLALTQLGQDPNAMTDCSDVIPQSKPIPGNLPFSFFPAGKTIKDVEQACAETPFPTLTTLPGPETSVQRIPPPPGA
Broadly, the kcat is the number of substrate molecules converted per active site and unit of time at saturation. Usually kcat/Km stands for the turnover number divided by the Michaelis constant. As for B1, the Km amounted to 23.0 ± 1.6 µM in the series “purified protein [5]”, 190 ± 17 µM in “purified protein [6]” and 5.8 ± 0.5 µM in “purified protein [7]”. The kcat stood at 13 ± 0.2 s⁻¹ in the series “purified protein [5]”, 17.5 ± 0.5 s⁻¹ in “purified protein [6]” and 10 ± 0.1 s⁻¹ in the series “purified protein [7]”. For the same molecule, the kcat/Km was 563000 ± 36000 M⁻¹ s⁻¹ in “purified protein [5]”, 92000 ± 6000 M⁻¹ s⁻¹ in “purified protein [6]” and 1.72e+06 ± 153000 M⁻¹ s⁻¹ in the series “purified protein [7]”.

B2: MnP6 (Gelatoporia subvermispora B; S171W/S189W) (protein)
chain: APTAVCSDGTRVSNAVCCDFVSLGQDLQSMVLQGDCGEDAHEIIRLTFHDAVAISRKLGPSAGGGADGSMLLFPLVEPEFAASNGIDDSVNNLIPFLSLHPTISAGDLVQFAGAVALSNCPGAPRVQFLAGRPNHTIAAIDGLIPEPQDNVTWILERFDDAGGFTPFEVVWLLASHTIARADKVDPTLDAAPFDTTPFTFDSQIFLEVLLKGVGFPGLDNNTGEVSSPLPLGDTSTGGKDTGLMRLQSDFALAHDPRTACFWQGFVDQQEFMSQSFASAFAKLAVLGHNTDDLIDCSEVVPVPKPAVDKPTTFPATTGPQDLELSCLAERFPTLSVDPGAQETLIPHCSDGLENCTSVQFSGPATDSP
notes: mature protein, signal peptide removed, untagged in pET23a; S168W and S168W-environment variants
Regarding B2, the Km in “purified protein [8]” came to 60.2 ± 13.4 µM; in the series “purified protein [9]”, 2.74 ± 0.56 mM; in “purified protein [10]”, 0.0049 ± 0.0013 mM; in the series “purified protein [11]”, 12.6 ± 3 µM. In addition, the kcat in “purified protein [8]” turned out to be 1.4 ± 0.1 s⁻¹; in the series “purified protein [9]”, 0.54 ± 0.04 s⁻¹; in the series “purified protein [11]”, 7.8 ± 1.1 s⁻¹. The kcat/Km in the series “purified protein [8]” stood at 23000 ± 3000 M⁻¹ s⁻¹; in “purified protein [9]” it was 197 M⁻¹ s⁻¹; in the series “purified protein [11]” it was 619000 ± 27000 M⁻¹ s⁻¹.

B3: MnP6 (Gelatoporia subvermispora B; F279E/F283M/F289K/Q292N/S171W/S189W/S293R/S296G/T183S) (protein)
chain: APTAVCSDGTRVSNAVCCDFVSLGQDLQSMVLQGDCGEDAHEIIRLTFHDAVAISRKLGPSAGGGADGSMLLFPLVEPEFAASNGIDDSVNNLIPFLSLHPTISAGDLVQFAGAVALSNCPGAPRVQFLAGRPNHTIAAIDGLIPEPQDNVTWILERFDDAGGFSPFEVVWLLASHTIARADKVDPTLDAAPFDTTPFTFDSQIFLEVLLKGVGFPGLDNNTGEVSSPLPLGDTSTGGKDTGLMRLQSDFALAHDPRTACEWQGMVDQQEKMSNRFAGAFAKLAVLGHNTDDLIDCSEVVPVPKPAVDKPTTFPATTGPQDLELSCLAERFPTLSVDPGAQETLIPHCSDGLENCTSVQFSGPATDSP
notes: as for B2
In the case of B3, in the series “purified protein [9]”, the Km turned out to be 21.6 ± 0.2 mM, the kcat amounted to 1.69 ± 0.04 s⁻¹ and the kcat/Km was 78 M⁻¹ s⁻¹. In addition, in “purified protein [11]”, the Km was 5.4 ± 3 µM, the kcat was determined as 7 ± 1.1 s⁻¹ and the kcat/Km stood at 1.31e+06 ± 100000 M⁻¹ s⁻¹.
